# Legend:
# PRLR expressing cells = experiment: In vitro cell viability (cell kill) assay, several cell backgrounds; format: cell-based, human; settings: PC3/hPRLR and MCF7/hPRLR cell lines
# Text: (§1) PRLR-overexpressing cells, including HEK293, PC3, MCF7 and NCI-N87, were generated to assess the ability of anti-PRLR conjugated antibodies to reduce cell viability. For comparative purposes, PC3 and T47D cells with overexpressed ErbB2 were also generated, as well as an MCF7 cell line over-expressing both hPRLR and hErbB2. Briefly, Lipofectamine® 2000-mediated transfection methodology was utilized to generate HEK293 cells expressing human PRLR (HEK293/hPRLR) or human ErbB2 (HEK293/hErbB2). Lipofectamine LTX with Plus Reagent was used to generate PC3 cells expressing human PRLR (PC3/hPRLR) or human ErbB2 (PC3/hErbB2). Lentiviral-mediated transduction was utilized to generate MCF7 cells expressing human PRLR (MCF7/hPRLR), NCI-N87 cells expressing human PRLR (NCI-N87/hPRLR), T47D cells over-expressing human ErbB2 (T47D/hErbB2), and MCF7 cells expressing both human PRLR and human ErbB2 (MCF7/hPRLR/hErbB2). All lines were selected for at least two weeks in complete growth media plus appropriate selection reagents. Stably expressing populations were enriched for PRLR expression via FACS using the anti PRLR antibody Control I.
# (§2) Next, the ability of anti-PRLR-DM1 antibody-drug conjugates (i.e., anti-PRLR antibodies conjugated to DM1 via a non-cleavable linker [SMCC]) to reduce cell viability was determined using in vitro cell based assays. Cells were seeded in PDL-coated 96 well plates at 1500 to 10000 cells per well in complete growth media and allowed to grow overnight. For cell viability curves, ADCs or free DM1 (as the methyl disulfide derivative DM1-SMe) were added to the cells at final concentrations ranging from 500 nM to 5 pM and incubated for 3 days. The 293, PC3 and T47D cells were incubated with CCK8 (Dojindo, Rockville, Md.) for the final 1-3 hours and the absorbance at 450 nm (OD450) was determined on a Flexstation3 (Molecular Devices, Sunnyvale, Calif.). MCF7 cells were treated with Hoechst 33342 nuclear stain while being fixed with 4% formaldehyde. Images were acquired on the ImageXpress micro XL (Molecular Devices, Sunnyvale, Calif.) and nuclear counts were determined via Columbus image analysis software (Perkin Elmer, Shelton, Conn.). Background OD450 values (PC3, 293, and T47D) or nuclear counts (MCF7) from digitonin (40 nM) treated cells was subtracted from all wells and viability was expressed as a percentage of the untreated controls. IC50 values were determined from a four-parameter logistic equation over a 10-point response curve (GraphPad Prism).
# HEK293 (293) cells = experiment: In vitro cell viability (cell kill) assay, CCK8; format: cell-based, human
# Summary of the method: (§3)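 Anti-PRLR–DM1 ADCs (non-cleavable SMCC linker) or free DM1-SMe, 500 nM to 5 pM for 3 days on parental or hPRLR-overexpressing lines. HEK293: CCK8 OD450; MCF7: Hoechst nuclear counts by imaging.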
# [1] = system: HEK293/hPRLR (293/hPRLR) cells; experiment: In vitro cell viability (cell kill) assay, CCK8; format: cell-based, human
# Summary of the method: as §3
# PC3 cells = experiment: In vitro cell viability (cell kill) assay, CCK8; format: cell-based, human; settings: Table 11, 3 days
# Summary of the method: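 Cells stably overexpressing human PRLR (transfected or lentiviral, FACS-enriched) were treated for 3 days with anti-PRLR-SMCC-DM1 ADCs or free DM1-SMe at 500 nM to 5 pM. HEK293 and PC3 viability was read by CCK8 OD450; MCF7 by Hoechst nuclear counts. Digitonin background subtracted; % of untreated; IC50 from 10-point four-parameter fit.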
# MCF7 (MCF7/ATCC) cells = experiment: In vitro cell viability (cell kill) assay, nuclear counts; format: cell-based, human; settings: MCF7; Table 16
# Text: as §1, §2
# T47D cells [2] = experiment: In vitro cell viability (cell kill) assay, CCK8; format: cell-based, human; settings: for % Kill: T47D
# Experimental: as §2
# NCI-N87/hPRLR cells = experiment: In vitro cell viability (cell kill) assay; format: cell-based, human; settings: NCI-N87/PRLR; Table 17
# Text: PRLR-overexpressing cells, including HEK293, PC3, MCF7 and NCI-N87, were generated to assess the ability of anti-PRLR conjugated antibodies to reduce cell viability. For comparative purposes, PC3 and T47D cells with overexpressed ErbB2 were also generated, as well as an MCF7 cell line over-expressing both hPRLR and hErbB2. Briefly, Lipofectamine® 2000-mediated transfection methodology was utilized to generate HEK293 cells expressing human PRLR (HEK293/hPRLR) or human ErbB2 (HEK293/hErbB2). Lipofectamine LTX with Plus Reagent was used to generate PC3 cells expressing human PRLR (PC3/hPRLR) or human ErbB2 (PC3/hErbB2). […]
# Next, the ability of anti-PRLR-DM1 antibody-drug conjugates (i.e., anti-PRLR antibodies conjugated to DM1 via a non-cleavable linker [SMCC]) to reduce cell viability was determined using in vitro cell based assays. […] The 293, PC3 and T47D cells were incubated with CCK8 (Dojindo, Rockville, Md.) for the final 1-3 hours and the absorbance at 450 nm (OD450) was determined on a Flexstation3 (Molecular Devices, Sunnyvale, Calif.). […] Images were acquired on the ImageXpress micro XL (Molecular Devices, Sunnyvale, Calif.) and nuclear counts were determined via Columbus image analysis software (Perkin Elmer, Shelton, Conn.). […] IC50 values were determined from a four-parameter logistic equation over a 10-point response curve (GraphPad Prism).
# HEK293/hErbB2 cells = experiment: In vitro cell viability (cell kill) assay; format: cell-based, human; settings: 293/ErbB2; Table 14
# Text: as §1, §2
# (§4) The potency of anti-PRLR conjugated antibodies compared with a similarly conjugated antibody to the co-expressed ErbB2 cell surface target was also assessed.
# MCF7/hPRLR/hErbB2 cells = experiment: In vitro cell viability (cell kill) assay; format: cell-based, human; settings: MCF/PRLR + ErbB2; Table 17
# Text: as §1, §2, §4
# PC3/hErbB2 cells = experiment: In vitro cell viability (cell kill) assay; format: cell-based, human; settings: PC3/ErbB2; Table 15
# Text: as §1, §2, §4
# MCF7/PRLR tumors = experiment: MCF7/PRLR breast cancer xenograft, tumor size and tumor growth inhibition; format: in vivo, NCr nude mice; settings: for Average Tumor Growth Inhibition (%) / Final Tumor size mm^3 (mean ± SEM): MCF7/PRLR tumors TRIAL #1, NCr Nude mice, Day 52
# Summary of the method: (§5)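 MCF7/PRLR cells in mammary fat pad of female NCr nude mice, PC3/PRLR in flank of male SCID, T47D #11 in flank of female CB17 SCID, all with estrogen pellets.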
# PC3/PRLR tumors = experiment: PC3/PRLR xenograft, tumor size and tumor growth inhibition; format: in vivo, SCID mice; settings: for Average Tumor Growth Inhibition (%) / Final Tumor size mm^3 (mean ± SEM): PC3/PRLR tumors TRIAL #1, SCID mice, Day 63
# Summary of the method: as §5
# SK-BR-3 cells = experiment: In vitro cell viability (cell kill) assay; format: cell-based, human; settings: Table 16
# T47D cells [3] = experiment: Cell kill in the presence of PRLR ligand PRL (15 nM); format: cell-based, human; settings: Table 13, + 15 nM PRL
# Experimental: as §2
# [4] = molecular target: human PRLR (dimeric) binding to PRL (Homo sapiens, UniProt P16471); experiment: ELISA-based blocking of PRLR binding to immobilized human PRL; settings: plates coated with 1 μg/mL PRL; read-out: EC50, human PRLR binding to captured PRL
# Experimental: (§6) ELISA-based blocking assays were developed to determine the ability of H1H6958N2 and H1H6958N2-DM1 to block binding of human and cynomolgus monkey PRLR to immobilized human PRL. Dimeric forms of human or cynomolgus monkey (Macaca fascicularis) PRLR and monomeric human PRL were used in this assay. To generate initial dose-response curves, human or monkey PRLR at concentrations ranging from 3.38 pM to 200 nM was added to the plates previously coated in 1 μg/mL PRL. After 1-hour incubation, captured PRLR was detected with HRP-conjugated goat anti-Fcγ antibody and visualized with TMB colorimetric substrate by measuring absorbance at 450 nm. […] Mixtures were then added to plates coated with in 1 μg/mL PRL and captured PRLR was detected as described above. Data were analyzed using a four-parameter logistic equation over an 11-point response curve in GraphPad Prism software and IC50 values were calculated.
# [5] = molecular target: cynomolgus monkey PRLR (dimeric) binding to PRL; experiment: as above; set-up: species or system Macaca fascicularis; settings: plates coated with 1 μg/mL PRL; read-out: EC50, monkey PRLR binding to captured PRL
# Experimental: as §6
# [6] = system: PRLR in HEK293/PRLR/STAT5-Luc cells; experiment: STAT5 luciferase reporter assay, blocking of PRL-induced PRLR signaling (2 nM PRL); format: cell-based; settings: PRL dose response, no antibody; read-out: EC50, stimulation of human PRLR signaling
# Experimental: The capacity of H1H6958N2 and H1H6958N2-DM1 to block human PRL-induced PRLR signaling was determined in a luciferase reporter assay using the HEK293 cell line engineered to constitutively express PRLR and stably transduced with a lucifierase reporter construct comprising 5 tandem STAT5 binding sites derived from the promoter of the human interleukin-2 receptor α gene [STAT5 response element (×5)-luciferase] (John et al., The EMBO Journal, 1996, 15(20): 5627-5635). […] Plates were incubated at 37° C. and 5% CO2 for 5 hours and equilibrated to room temperature for 10 minutes. Luciferase activity was again measured using the ONE-Glo substrate and measuring luminescence.
# human PRLR (dimeric) binding to PRL, sequence (P16471 with tags, fused parts or gaps limits assumed): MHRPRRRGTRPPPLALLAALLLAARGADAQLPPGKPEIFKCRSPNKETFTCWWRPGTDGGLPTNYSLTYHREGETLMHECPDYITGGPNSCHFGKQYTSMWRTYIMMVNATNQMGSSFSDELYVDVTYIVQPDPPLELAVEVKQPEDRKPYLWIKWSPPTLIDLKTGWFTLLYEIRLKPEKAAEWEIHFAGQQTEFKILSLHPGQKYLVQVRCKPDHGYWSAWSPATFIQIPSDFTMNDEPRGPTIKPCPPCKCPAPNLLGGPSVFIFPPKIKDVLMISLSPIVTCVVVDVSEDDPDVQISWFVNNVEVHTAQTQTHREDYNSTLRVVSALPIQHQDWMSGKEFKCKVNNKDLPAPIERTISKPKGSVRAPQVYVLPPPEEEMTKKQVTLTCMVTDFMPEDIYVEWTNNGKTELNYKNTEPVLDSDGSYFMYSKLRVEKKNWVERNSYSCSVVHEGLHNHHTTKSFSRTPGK
# cynomolgus monkey PRLR (dimeric) binding to PRL, sequence (as listed by the source): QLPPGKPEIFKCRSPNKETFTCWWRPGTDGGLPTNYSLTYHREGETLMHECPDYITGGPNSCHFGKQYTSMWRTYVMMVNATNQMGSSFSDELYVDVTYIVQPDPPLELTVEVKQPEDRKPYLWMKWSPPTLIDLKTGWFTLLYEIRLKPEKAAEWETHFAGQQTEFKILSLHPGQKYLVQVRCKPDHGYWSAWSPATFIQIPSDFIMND
molecule,measurement,setting,value
H1H6953N-DM1 (conjugate) VH: EVQLLESGGGLVQPGGTLRLSCAASGFTFSAYAMSWVRQAPGKGLEWVSSINVRAGDTYYADSVKGRFTISRDNSKNTLFLLMNSLRAEDTAAYYCAKARYSSNWGFDFWGQGTLVTVSS VL: DIVMTQSPDSLTVSLGARTTINCQSSQTILHSSNNHNYLAWYQQKPGLPPKLLIYWSSTRESGVPDRFSGSGSGTDFTLTISSLQAEDVAIYYCQQYSNTPYTFGQGTKLEIN,"cell killing, non-cleavable DM1 ADCs versus cleavable MMAE ADCs",PRLR expressing cells,nearly equivalent cell killing
same,% Kill,"HEK293 (293) cells; 293, Table 11, 3 days",88%
same,% Kill,"HEK293 (293) cells; 293, Table 14",92%
same,% Kill,"[1]; 293/PRLR, Table 14",93%
same,percent killing,[1]; 293/hPRLR cells,93%
same,% Kill,PC3 cells,78%
same,IC50,PC3 cells,110 nM
same,% Kill,MCF7 (MCF7/ATCC) cells,74%
same,percent killing,T47D cells [2]; T47D cells,78%
same,% Kill,T47D cells [2]; Table 16,78%
same,% Kill,NCI-N87/hPRLR cells,94%
same,% Kill,HEK293/hErbB2 cells,98%
same,IC50,HEK293/hErbB2 cells,120 nM
same,% Kill,MCF7/hPRLR/hErbB2 cells,77%
same,% Kill,PC3/hErbB2 cells,73%
same,Average Tumor Growth Inhibition (%),MCF7/PRLR tumors; multi-dose 5 mg/kg,120%
same,Final Tumor size mm^3 (mean ± SEM),MCF7/PRLR tumors; multi-dose 5 mg/kg,107 ± 45 mm^3
same,Average Tumor Growth Inhibition (%),MCF7/PRLR tumors; multi-dose 15 mg/kg,133%
same,Final Tumor size mm^3 (mean ± SEM),MCF7/PRLR tumors; multi-dose 15 mg/kg,0 ± 0 mm^3
same,MCF7/PRLR tumor growth,"MCF7/PRLR tumors; first multi-dose trial, 5 and 15 mg/kg",potently inhibited MCF7/PRLR tumor growth
same,Average Tumor Growth Inhibition (%),PC3/PRLR tumors; multi-dose 5 mg/kg,23%
same,Final Tumor size mm^3 (mean ± SEM),PC3/PRLR tumors; multi-dose 5 mg/kg,1058 ± 138 mm^3
same,Average Tumor Growth Inhibition (%),PC3/PRLR tumors; multi-dose 15 mg/kg,39%
same,Final Tumor size mm^3 (mean ± SEM),PC3/PRLR tumors; multi-dose 15 mg/kg,892 ± 53 mm^3
same,PC3/PRLR tumor growth,"PC3/PRLR tumors; multi-dose, especially at 15 mg/kg",demonstrated inhibition of tumor growth
same,% Kill,SK-BR-3 cells,77%
H1H6782P-SMCC-DM1 (conjugate) VH: EVQLVESGGGLVQPGRSLRLSCAASGFTFDDYAMHWVRQAPGKGLEWVSGIIWNSGHIGYGDSVKGRFTISRDNAKKSLYLQMNSLRAEDTALYYCARDSGRYQSYFDYWGQGTLVTVSS VL: DIQMTQSPSTLSASVGDRVTITCRASHIISSWLAWYQQKPGKAPKVLIFKASSLESGVPSRFSGSGSGTEFTLTISSLQPDDFATYYCQQYNTYSRTFGQGTKVEIK,% Kill,"HEK293 (293) cells; HEK293, Table 13, + 15 nM PRL",78%
same,% Kill,"HEK293 (293) cells; HEK293, Table 13, without PRL",83%
same,% Kill,"T47D cells [2]; Table 13, without PRL",98%
same,% Kill,T47D cells [3],97%
"PRL: monomeric human prolactin, ligand of PRLR (protein) LPICPGGAARCQVTLRDLFDRAVVLSHYIHNLSSEMFSEFDKRYTHGRGFITKAINSCHTSSLATPEDKEQAQQMNQKDFLSLIVSILRSWNEPLYHLVTEVRGMQEAPEAILSKAVEIEEQTKRLLEGMELIVSQVHPETKENEIYPVWSGLPSLQMADEESRLSAYYNLLHCLRRDSHKIDNYLKLLKCRIIHNNNC",EC50,[4],4.9 nM
same,EC50,[5],5.7 nM
same,EC50,[6],2.1 nM
